US20110091971A1, “Differentiation of Pluripotent Stem Cells” (priority 2008, published 2011)
“And” between values parts separate entries of the source, which are not always exact repeats. Identical values can stand only once. “Also recorded” adds a separate entry of the source.

Test system: H1 or H9 human embryonic stem cells
Experiment: Activin A bioassay: differentiation of human embryonic stem cells to definitive endoderm, cell number and SOX17 intensity by high content analysis (96-well, four days);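 for Cell Number average: Raw total cell count per well from high content imaging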;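 for Sox 17 Intensity average: total fluorescence of the cell multiplied by cell area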
Format: cell-based
Description: Activin A is an important mediator of differentiation in a broad range of cell types. […] A bioassay that measures this differentiation in human embryonic stem cells was adapted in miniaturized format to 96-well plates for screening purposes. Validation was completed using treatment with commercial sources of activin A and Wnt3a recombinant proteins and measuring protein expression of the transcription factor SOX17, which is considered a representative marker of definitive endoderm.
Live Cell Assay: Briefly, clusters of H1 or H9 human embryonic stem cells were grown on growth factor-reduced MATRIGEL™ (Invitrogen; Cat #356231)-coated tissue culture plastic. Cells were passaged using collagenase (Invitrogen; Cat # Cat #17104-019) treatment and gentle scraping, washed to remove residual enzyme, and plated in a ratio of 1:1 (surface area) on growth factor-reduced MATRIGEL™-coated 96-well plates (black, 96-well; Packard ViewPlates; Cat #6005182). Cells were allowed to attach as clusters and then recover log phase growth over a 1 to 3 day period, feeding daily with MEF conditioned medium supplemented with 8 ng/ml bFGF (R&D Systems; Cat #233-FB).
The assay was initiated by washing the wells of each plate twice in PBS and followed by adding an aliquot (100 μl) of test sample in DMEM:F12 basal medium (Invitrogen; Cat #11330-032) to each well. Test conditions were performed in triplicate, feeding […] by aspirating and replacing the medium from each well with test samples over a total four day assay period. On the first and second day of assay, test samples added to the assay wells were diluted in DMEM:F12 with 0.5% FCS (HyClone; Cat #SH30070.03) and 20 ng/ml Wnt3a (R&D Systems; Cat #1324-WN). On the third and fourth day of assay, test samples added to the assay wells were diluted in DMEM:F12 with 2% FCS, without any Wnt3a. Positive control samples consisted of recombinant human activin A (Peprotech; Cat #120-14) added at a concentration of 100 ng/ml throughout assay plus Wnt3a (20 ng/ml) on days 1 and 2. Negative control samples omitted treatment with both activin A and Wnt3a.
High Content Analysis: At the conclusion of four days of culture, assay plates were washed twice with PBS, fixed with 4% paraformaldehyde at room temperature for 20 minutes, then washed three times with PBS and permeabilized with 0.5% Triton X-100 for 20 minutes at room temperature. Cells were washed again three times with PBS and blocked with 4% chicken serum (Invitrogen; Cat #16110082) in PBS for 30 minutes at room temperature. Primary antibody (goat anti-human SOX17; R&D Systems; cat #AF1924) was diluted 1:100 in 4% chicken serum and added to each well for one hour at room temperature. Alexa Fluor 488 conjugated secondary antibody (chicken anti-goat IgG; Molecular Probes; Cat #) was diluted 1:200 in PBS and added to each sample well after washing three times with PBS. To counterstain nuclei, 4 μg/ml Hoechst 33342 (Invitrogen; Cat #H3570) was added for ten minutes at room temperature. Plates were washed once with PBS and left in 100 μl/well PBS for imaging.
Imaging was performed using an IN Cell Analyzer 1000 (GE Healthcare) utilizing the 51008bs dichroic for cells stained with Hoechst 33342 and Alexa Fluor 488. Exposure times were optimized from positive control wells and from untreated negative control wells stained with secondary antibody alone. Images from 15 fields per well were acquired to compensate for any cell loss during the bioassay and subsequent staining procedures. Measurements for total cell number and total SOX17 intensity were obtained from each well using IN Cell Developer Toolbox 1.7 (GE Healthcare) software. Segmentation for the nuclei was determined based on grayscale levels (baseline range 100-300) and nuclear size. Averages and standard deviations were calculated for each replicate data set. […]

[1] = supernatant concentration 1x, assay dilution 1:20
[2] = supernatant concentration 1x, assay dilution 1:20, control = R&D Sys Activin A 100 ng/ml on same plate
[3] = supernatant concentration 10x, assay dilution 1:20
[4] = concentrated supernatant (10x; ACTD3 4x), assay dilution 1:20
[5] = supernatant concentration 10x, assay dilution 1:20, control = R&D Sys Activin A 100 ng/ml on same plate
[6] = supernatant concentration 10x, assay dilution 1:40
[7] = supernatant concentration 10x, assay dilution 1:40, control = R&D Sys Activin A 100 ng/ml on same plate

R&D Sys Activin A
Cell Number average (assay concentration 6.25 ng/ml): 5540 | Sox 17 Intensity % of control (assay concentration 6.25 ng/ml): 13% | Sox 17 Intensity average (assay concentration 6.25 ng/ml): 5.49E+06 | Cell Number average (assay concentration 12.5 ng/ml): 5784 | Sox 17 Intensity % of control (assay concentration 12.5 ng/ml): 19% | Sox 17 Intensity average (assay concentration 12.5 ng/ml): 8.10E+06 | Cell Number average (assay concentration 25 ng/ml): 6212 | Sox 17 Intensity % of control (assay concentration 25 ng/ml): 39% | Sox 17 Intensity average (assay concentration 25 ng/ml): 1.69E+07 | Cell Number average (assay concentration 50 ng/ml): 6218 | Sox 17 Intensity % of control (assay concentration 50 ng/ml): 33% | Sox 17 Intensity average (assay concentration 50 ng/ml): 1.45E+07 | Cell Number average (assay concentration 100 ng/ml): 8680 | Sox 17 Intensity % of control (assay concentration 100 ng/ml): 100% | Sox 17 Intensity average (assay concentration 100 ng/ml): 4.37E+07 | Cell Number average (assay concentration 200 ng/ml): 12032 | Sox 17 Intensity % of control (assay concentration 200 ng/ml): 285% | Sox 17 Intensity average (assay concentration 200 ng/ml): 1.25E+08 | Cell Number average (assay concentration 400 ng/ml): 13961 | Sox 17 Intensity % of control (assay concentration 400 ng/ml): 396% | Sox 17 Intensity average (assay concentration 400 ng/ml): 1.73E+08

B1: OriGene wildtype: wildtype human activin A expressed from commercial OriGene construct (Cat. No. TC118774, pCMV6-XL4); supernatant used as positive control (protein, UniProt P08476 311-426, looked up)
Inhibin beta A chain: GLECDGKVNICCKKQFFVSFKDIGWNDWIIAPSGYHANYCEGECPSHIAGTSGSSLSFHSTVINHYRMRGHSPFANLKSCCVPTKLRPMSMLYYDDGQNIIKKDIQNMIVEECGCS
modifications: Inhibin beta A chain activin A homodimer
improvement of functional activity on concentrating the supernatant (HEK293-E supernatant, 4× concentrated versus 1× (neat)): approximately 1.5 fold | activity (SOX17 intensity) of supernatants (HEK293-E supernatants, OriGene in pCMV6-XL4 compared with ACTN 1 in pcDNA3.1(−)): much greater activity; also recorded: superior | Cell Number average [1]: 979 | Sox 17 Intensity average [1]: 1.819E+07 | Sox 17 Intensity % of control [2]: 9.9% | Cell Number average [3]: 5548 | Sox 17 Intensity average [3]: 2.035E+08 | Cell Number average (supernatant concentration 10x, assay dilution 1:20, assay plates #007, #009, #010, listed as OriGENE WT): 12727 and 7061 and 11356 | Cell Number average (supernatant concentration 50x, assay dilution 1:20, assay plates #008, #009, listed as OriGENE WT): 12200 and 9025 | Sox 17 Intensity % of control (supernatant concentration 50x, assay dilution 1:20, control = R&D Sys Activin A 100 ng/ml on same plate, listed as OriGENE WT): 409.0% and 285.3%

B2: ACTN16: activin A variant peptide, SEQ ID 17 (protein)
chain: GLECDGKVNLCCKKQLFVSFKDIGWNDWIIAPSGYHANHCSGLCPSHIAGTSGSSLSFHSTVINHYRMRGHSPFSQMGACCVPTKLRPMSMLYYDDGQNIIKKDIQNMIVEECGCS
Cell Number average [4]: 8775 | Sox 17 Intensity average [4]: 3.89E+07 | Sox 17 Intensity % of control (concentrated supernatant (10x; ACTD3 4x), assay dilution 1:20, control = R&D Sys Activin A 100 ng/ml): 89% | higher potency of supernatant concentrated 10× relative to corresponding unconcentrated supernatant (primary screening, SOX17 expression, H1 cells): 4 fold | Cell Number average [1]: 7068 | Sox 17 Intensity average [1]: 1.36E+07 | Sox 17 Intensity % of control [2]: 52.7% | Cell Number average [3]: 11118 | Sox 17 Intensity average [3]: 5.55E+07 | Sox 17 Intensity % of control [5]: 214.4% | Cell Number average [6]: 11064 | Sox 17 Intensity average [6]: 6.46E+07 | Sox 17 Intensity % of control [7]: 249.3%

B3: ACTN35: activin A variant peptide, SEQ ID 36 (protein)
chain: GLECDGKVNLCCKKQDFVSFKDIGWNDWIIAPSGYHANRCSGKCPSHIAGTSGSSLSFHSTVINHYRMRGHSPFSDMGSCCVPTKLRPMSMLYYDDGQNIIKKDIQNMIVEECGCS
Cell Number average [1]: 8553 | Sox 17 Intensity average [1]: 7.94E+04 | Sox 17 Intensity % of control [2]: 0.3% | Cell Number average [3]: 6805 | Sox 17 Intensity average [3]: 1.26E+06 | Sox 17 Intensity % of control [5]: 4.3% | Cell Number average [6]: 7926 | Sox 17 Intensity average [6]: 6.76E+05 | Sox 17 Intensity % of control [7]: 2.3%

B4: R&D Sys Activin A (protein, UniProt P08476 311-426, looked up)
Inhibin beta A chain: GLECDGKVNICCKKQFFVSFKDIGWNDWIIAPSGYHANYCEGECPSHIAGTSGSSLSFHSTVINHYRMRGHSPFANLKSCCVPTKLRPMSMLYYDDGQNIIKKDIQNMIVEECGCS
modifications: Inhibin beta A chain activin A homodimer
Sox 17 Intensity % of control (100 ng/ml (the control itself)): 100% | Sox 17 Intensity % of control (100 ng/ml (the plate's control itself)): 100%

B5: ACTN38: activin A variant peptide, SEQ ID 39 (protein)
chain: GLECDGKVNLCCKKQDFVSFKDIGWNDWIIAPSGYHANKCGGKCPSHIAGTSGSSLSFHSTVINHYRMRGHSPFSQLGACCVPTKLRPMSMLYYDDGQNIIKKDIQNMIVEECGCS
Cell Number average [1]: 2023 | Sox 17 Intensity average [1]: 9.26E+04 | Sox 17 Intensity % of control [2]: 1.0% | Cell Number average [3]: 3019 | Sox 17 Intensity average [3]: 3.89E+05 | Sox 17 Intensity % of control [5]: 4.2% | Cell Number average [6]: 2520 | Sox 17 Intensity average [6]: 3.56E+04 | Sox 17 Intensity % of control [7]: 0.4%

B6: ACTN39: activin A variant peptide, SEQ ID 40 (protein)
chain: GLECDGKVNLCCKKQNFVSFKDIGWNDWIIAPSGYHANECSGLCPSHIAGTSGSSLSFHSTVINHYRMRGHSPFSDMGSCCVPTKLRPMSMLYYDDGQNIIKKDIQNMIVEECGCS
Cell Number average [1]: 1596 | Sox 17 Intensity average [1]: 5.13E+04 | Sox 17 Intensity % of control [2]: 0.5% | Cell Number average [3]: 3362 | Sox 17 Intensity average [3]: 1.31E+06 | Sox 17 Intensity % of control [5]: 14.0% | Cell Number average [6]: 1331 | Sox 17 Intensity average [6]: 4.81E+05 | Sox 17 Intensity % of control [7]: 5.1%
